In article PMC9991925 (2022):

B1: ectodomain fragment of human Met (MetECD, 1-931), biotinylated (domain or fragment)
chain: ECKEALAKSEMNVNMKYQLPNFTAETPIQNVILHEHHIFLGATNYIYVLNEEDLQKVAEYKTGPVLEHPDCFPCQDCSSKANLSGGVWKDNINMALVVDTYYDDQLISCGSVNRGTCQRHVFPHNHTADIQSEVHCIFSPQIEEPSQCPDCVVSALGAKVLSSVKDRFINFFVGNTINSSYFPDHPLHSISVRRLKETKDGFMFLTDQSYIDVLPEFRDSYPIKYVHAFESNNFIYFLTVQRETLDAQTFHTRIIRFCSINSGLHSYMEMPLECILTEKRKKRSTKKEVFNILQAAYVSKPGAQLARQIGASLNDDILFGVFAQSKPDSAEPMDRSAMCAFPIKYVNDFFNKIVNKNNVRCLQHFYGPNHEHCFNRTLLRNSSGCEARRDEYRTEFTTALQRVDLFMGQFSEVLLTSISTFIKGDLTIANLGTSEGRFMQVVVSRSGPSTPHVNFLLDSHPVSPEVIVEHTLNQNGYTLVITGKKITKIPLNGLGCRHFQSCSQCLSAPPFVQCGWCHDKCVRSEECLSGTWTQQICLPAIYKVFPNSAPLEGGTRLTICGWDFGFRRNNKFDLKKTRVLLGNESCTLTLSESTMNTLKCTVGPAMNKHFNMSIIISNGHGTTQYSTFSYVDPVITSISPKYGPMAGGTLLTLTGNYLNSGNSRHISIGGKTCTLKSVSNSILECYTPAQTISTEFAVKLKIDLANRETSIFSYREDPIVYEIHPTKSFISGGSTITGVGKNLNSVSVPRMVINVHEAGRNFTVACQHRSNSEIICCTTPSLQQLNLQLPLKTKAFFMLDGILSKYFDLIYVHNPVFKPFEKPVMISMGNENVLEIKGNDIDPEAVKGEVLKVGNKSCENIHLHSEAVLCTVPNDLLKLNSELNIEWKQAISSTVLGKVIVQPDQNF
modifications: biotin on the biotin acceptor sequence (BirA-mediated)
B2: sTfR(aMD4) (antibody, V domains shown)
VH: EVQLVESGGGLVQPGNSLTLSCVASGFTFSNYGMHWIRQAPKKGLEWIAMIYYDSSKMNYADTVKGRFTISRDNSKNTLYLEMNSLRSEDTAMYYCAVPTSHYVVDVWGQGVSVTVSS
VL: DIQMTQSPASLSASLEEIVTITCQASQDIGNWLAWYQQKPGKSPQLLIYGATSLADGVPSRFSGSRSGTQFSLKISRVQVEDIGIYYCLQAYNTPWTFGGGTKLELK
B3: dTfR(aMD4) (antibody, V domains shown)
VH: B2 VH
VL: B2 VL

Columns and labels:
Fc(aMD4)T2 = Fc(aMD4)T2 (human, UniProt P01857 104-330 = IgG part); assay: SPR
Fc(aMD4ds)B3 = Fc(aMD4ds)B3 (human, UniProt P01857 104-330 = IgG part); assay: SPR
Fc(aMD4)B3 = Fc(aMD4)B3 (human, UniProt P01857 104-330 = IgG part); assay: SPR
Fc(aMD4)T3 = assay: SPR
Fc(aMD4)T1 = Fc(aMD4)T1 (human, UniProt P01857 104-330 = IgG part); assay: SPR
Fc(aMD4)M2 = Fc(aMD4)M2 (human, UniProt P01857 104-330 = IgG part); assay: SPR
Fc(aMD4ds)T1 = Fc(aMD4ds)T1 (human, UniProt P01857 104-330 = IgG part); assay: SPR
Fc(aMD4)B2 = Fc(aMD4)B2 (human, UniProt P01857 104-330 = IgG part); assay: SPR
Fc(aMD4)B1 = Fc(aMD4)B1 (human, UniProt P01857 104-330 = IgG part); assay: SPR
recombinant mouse TfR = recombinant mouse TfR (mouse, UniProt Q62351 1-763); assay: ELISA
Sequence of recombinant mouse TfR (Q62351 89-763): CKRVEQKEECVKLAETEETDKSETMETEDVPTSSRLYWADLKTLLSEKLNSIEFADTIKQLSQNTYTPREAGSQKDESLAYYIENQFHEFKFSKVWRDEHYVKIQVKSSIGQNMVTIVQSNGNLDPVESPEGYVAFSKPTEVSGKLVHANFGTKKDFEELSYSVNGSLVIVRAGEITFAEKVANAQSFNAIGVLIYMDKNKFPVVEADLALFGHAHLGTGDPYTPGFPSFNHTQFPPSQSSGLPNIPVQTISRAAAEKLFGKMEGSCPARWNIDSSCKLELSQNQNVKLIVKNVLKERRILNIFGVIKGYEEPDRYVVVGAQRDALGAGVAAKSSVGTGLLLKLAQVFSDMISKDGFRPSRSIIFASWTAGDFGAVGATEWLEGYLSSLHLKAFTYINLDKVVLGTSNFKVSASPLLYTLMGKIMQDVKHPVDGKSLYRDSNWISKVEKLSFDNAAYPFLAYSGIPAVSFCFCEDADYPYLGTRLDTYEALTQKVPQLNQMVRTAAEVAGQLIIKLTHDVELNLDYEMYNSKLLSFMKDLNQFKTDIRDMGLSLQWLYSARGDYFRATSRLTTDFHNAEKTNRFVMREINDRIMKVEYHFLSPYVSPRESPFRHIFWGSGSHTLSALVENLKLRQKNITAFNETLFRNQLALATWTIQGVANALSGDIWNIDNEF

| Binder | Kd (Fc(aMD4)T2) | Kd (Fc(aMD4ds)B3) | Kd (Fc(aMD4)B3) | Kd (Fc(aMD4)T3) | Kd (Fc(aMD4)T1) | Kd (Fc(aMD4)M2) | Kd (Fc(aMD4ds)T1) | Kd (Fc(aMD4)B2) | Kd (Fc(aMD4)B1) | Kd (recombinant mouse TfR) |
| --- | --- | --- | --- | --- | --- | --- | --- | --- | --- | --- |
| B1 | 401 nM | 3.7 nM | 4 nM | 652 nM | 75.8 nM | 18.9 nM | 73.4 nM | 79.1 nM | 10.8 nM |  |
| B2 |  |  |  |  |  |  |  |  |  | 30.8 nM |
| B3 |  |  |  |  |  |  |  |  |  | 0.36 nM |
